Results reported in article doi:10.1101/860916 (bioRxiv, 2019).

T1: FtsZ of S. coelicolor, C-terminal His-tag fusion (Streptomyces coelicolor, UniProt P45500 1-399)
T1 sequence (looked up): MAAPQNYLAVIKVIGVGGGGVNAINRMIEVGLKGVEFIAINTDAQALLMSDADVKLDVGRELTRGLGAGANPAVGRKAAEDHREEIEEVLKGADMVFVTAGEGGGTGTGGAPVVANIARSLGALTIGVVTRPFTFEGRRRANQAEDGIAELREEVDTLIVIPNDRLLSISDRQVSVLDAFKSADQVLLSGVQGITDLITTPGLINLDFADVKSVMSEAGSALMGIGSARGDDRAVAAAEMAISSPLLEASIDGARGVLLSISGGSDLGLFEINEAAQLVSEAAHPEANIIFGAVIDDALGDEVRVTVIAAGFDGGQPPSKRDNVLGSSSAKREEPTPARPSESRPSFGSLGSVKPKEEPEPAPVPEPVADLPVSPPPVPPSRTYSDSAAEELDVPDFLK


How the values were obtained:
[1] = molecular target: SsgB of S. coelicolor, wild type, His6-tagged (Streptomyces coelicolor) (UniProt Q9L268); assay: crystal structure
[2] = molecular target: SsgB of S. coelicolor, wild type, His6-tagged (Streptomyces coelicolor) (UniProt Q9L268); assay: SEC
[3] = molecular target: T1, FtsZ of S. coelicolor, C-terminal …; assay: co-sedimentation

| Molecule | stoichiometry N [1] | stoichiometry N [2] | binding result [3] |
| --- | --- | --- | --- |
| SsgB of S. coelicolor, wild type, His6-tagged (from UniProt Q9L268 1-137) (natural protein) | 3 | 3 |  |
| SsgB of S. coelicolor, wild type, His6-tagged (natural protein, Streptomyces coelicolor, UniProt Q9L268 1-137, looked up) MNTTVSCELHLRLVVSSESSLPVPAGLRYDTADPYAVHATFHTGAEETVEWVFARDLLAEGLHRPTGTGDVRVWPSRSHGQGVVCIALSSPEGEALLEAPARALESFLKRTDAAVPPGTEHRHFDLDQELSHILAES |  |  | binds |
| SsgB E120A of S. coelicolor, His6-tagged (natural protein, Streptomyces coelicolor, UniProt Q9L268 1-137, looked up) MNTTVSCELHLRLVVSSESSLPVPAGLRYDTADPYAVHATFHTGAEETVEWVFARDLLAEGLHRPTGTGDVRVWPSRSHGQGVVCIALSSPEGEALLEAPARALESFLKRTDAAVPPGTAHRHFDLDQELSHILAES |  |  | binds |
| SsgB E120G of S. coelicolor, His6-tagged (natural protein, Streptomyces coelicolor, UniProt Q9L268 1-137, looked up) MNTTVSCELHLRLVVSSESSLPVPAGLRYDTADPYAVHATFHTGAEETVEWVFARDLLAEGLHRPTGTGDVRVWPSRSHGQGVVCIALSSPEGEALLEAPARALESFLKRTDAAVPPGTGHRHFDLDQELSHILAES |  |  | binds |
